The values below are quoted from earlier work in publication PMC7662479.

The series deals with Angiopoietin-2 (Homo sapiens) (UniProt O15123).
Chain of UniProt O15123 (O15123 19-496): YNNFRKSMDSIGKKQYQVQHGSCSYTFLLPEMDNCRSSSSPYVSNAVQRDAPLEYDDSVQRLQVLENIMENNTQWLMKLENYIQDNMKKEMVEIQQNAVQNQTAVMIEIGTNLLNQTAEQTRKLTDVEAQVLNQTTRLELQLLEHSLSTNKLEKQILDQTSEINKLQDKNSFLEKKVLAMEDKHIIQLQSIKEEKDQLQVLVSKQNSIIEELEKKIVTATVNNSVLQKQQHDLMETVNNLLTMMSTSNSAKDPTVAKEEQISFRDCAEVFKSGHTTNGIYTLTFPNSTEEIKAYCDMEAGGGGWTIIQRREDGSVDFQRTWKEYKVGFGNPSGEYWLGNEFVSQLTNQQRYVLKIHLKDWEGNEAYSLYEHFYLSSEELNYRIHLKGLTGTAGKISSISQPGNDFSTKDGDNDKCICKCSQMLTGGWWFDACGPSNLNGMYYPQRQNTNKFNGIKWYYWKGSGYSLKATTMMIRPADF

For nesvacumab, the Kd was 0.024 nM.

As usually defined, the Kd is the equilibrium constant for the complex coming apart.
